Ka data for one molecule are collected here from patent CN113045662A (SEEBIO BIOTECHNOLOGY SHANGHAI CO LTD, dated 2021).

This assay has as its target T1, PD-L1-Ig-V (UniProt Q9NZQ7 19-134).
T1 construct: domain: Ig-V; also called PD-L1胞外域蛋白; not shown: His-Tag from the pET-28a vector
The experiment in a line: non-competitive checkerboard ELISA, mean of 6 K values. (In general: ELISA stands for enzyme-linked immunosorbent assay.)

T1 sequence (Q9NZQ7 19-134): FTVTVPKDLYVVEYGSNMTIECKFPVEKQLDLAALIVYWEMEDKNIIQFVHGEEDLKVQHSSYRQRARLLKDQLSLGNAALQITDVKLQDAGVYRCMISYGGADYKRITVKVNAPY

B1: PD-L1-Ig-V-VHH 6-21 (VHH)
VHH: DVQLQASGGGLVQAGGSLRLSCAASRMIFSTFSIQDMGWYRQAPGKQRDLVALITSDGSTNYADSVKGRFTISRDNAKSTVYLQMNNLKPEDTAVYYCAATDNVSGGRLLLNIWWMRDMWYNYWGQGTLVTVSS
notes: Nanobody from a synthetic phage display library (pCANTAB5E, M13K07 helper phage); also called 6-21号克隆
For the molecule B1, the Ka was roughly 1.93e+08 M⁻¹.
